Source: paper PMC7749410
Values belong to the substance of their own block, whether it stands above or below them.

Columns and labels:
[1] = target: cc-del0 (cc-C99 18-99) (Saccharomyces cerevisiae | human); test: native gel or EMSA
[2] = target: cc-del0 G29C (Saccharomyces cerevisiae | human); test: cross-linking
[3] = target: cc-del1 (cc-C99 19-99) (Saccharomyces cerevisiae | human); test: native gel or EMSA
[4] = target: cc-del2 (cc-C99 20-99) (Saccharomyces cerevisiae | human); test: native gel or EMSA
[5] = target: cc-del2 G29C (Saccharomyces cerevisiae | human); test: cross-linking
[6] = target: cc-del3 (cc-C99 21-99) (Saccharomyces cerevisiae | human); test: native gel or EMSA
[7] = target: cc-del3 G29C (Saccharomyces cerevisiae | human); test: cross-linking
[8] = target: cc-del4 (cc-C99 22-99) (Saccharomyces cerevisiae | human); test: native gel or EMSA
[9] = target: cc-del4 G37C (Saccharomyces cerevisiae | human); test: cross-linking
[10] = target: cc-del5 (cc-C99 23-99) (Saccharomyces cerevisiae | human); test: native gel or EMSA
[11] = target: cc-del6 (cc-C99 24-99) (Saccharomyces cerevisiae | human); test: native gel or EMSA
[12] = target: cc-del6 G29C (Saccharomyces cerevisiae | human); test: cross-linking
[13] = target: cc-del7 (cc-C99 25-99) (Saccharomyces cerevisiae | human); test: native gel or EMSA
[14] = target: cc-del7 G29C (Saccharomyces cerevisiae | human); test: cross-linking
[15] = target: cc-del7 G37C (Saccharomyces cerevisiae | human); test: cross-linking
[16] = target: cc-del8 (cc-C99 26-99) (Saccharomyces cerevisiae | human); test: native gel or EMSA
[17] = target: cc-del9 (cc-C99 27-99) (Saccharomyces cerevisiae | human); test: native gel or EMSA
[18] = target: cc-del9 G29C (Saccharomyces cerevisiae | human); test: cross-linking

Substance: cc-del0 (cc-C99 18-99)
stoichiometry N [1]: 2

Substance: cc-del0 G29C
stoichiometry N [2]: 2

Substance: cc-del1 (cc-C99 19-99)
stoichiometry N [3]: 2

Substance: cc-del2 (cc-C99 20-99)
stoichiometry N [4]: 2

Substance: cc-del3 (cc-C99 21-99)
stoichiometry N [6]: 2

Substance: cc-del3 G29C
stoichiometry N [7]: 2

Substance: cc-del4 (cc-C99 22-99)
stoichiometry N [8]: 2

Substance: cc-del6 (cc-C99 24-99)
stoichiometry N [11]: 2

Substance: cc-del6 G29C
stoichiometry N [12]: 2

Substance: cc-del7 (cc-C99 25-99)
stoichiometry N [13]: 2

Substance: cc-del7 G29C
stoichiometry N [14]: 2

Substance: cc-del7 G37C
stoichiometry N [15]: 2

Second part, the substance after the results:

stoichiometry N [5]: 2
Substance: cc-del2 G29C

stoichiometry N [9]: 2
Substance: cc-del4 G37C

stoichiometry N [10]: 2
Substance: cc-del5 (cc-C99 23-99)

stoichiometry N [16]: 2
Substance: cc-del8 (cc-C99 26-99)

stoichiometry N [17]: 2
Substance: cc-del9 (cc-C99 27-99)

stoichiometry N [18]: 2
Substance: cc-del9 G29C
